Experimental data reported in article PMC4346626.

Target: envelope (E) protein of DENV3 reference strain CH53489, on the virus particle (dengue virus serotype 3, strain CH53489)

B1: Fab fragment of human monoclonal antibody 5J7 (Fab, V domains shown)
VH: QVQLVQSGAELRKPGSSVKVSCRASGGTFSSYTFNWVRQAPGQGLEWMGGFIPVFNTTNYAQTFQGRVTIAADKSTSTAYMELRSLRSEDTAIYYCARDKELLFSRAFDIWGQGTMVTVSS
VL: DIQMTQSPSSLSASVGDRVTITCRASQSISRYLNWYQREPGKAPKLLIYGASSLQRGVPSRFSGSGSGTDFTLTISSLQPEDFATYYCQQSQYIPYTFGQGTKVDIK
Question: How did the neut50, flow cytometry-based neutralization of DENV3 (CH53489) infection of Vero-81 cells turn out when B1 was run?
Answer: Its neut50, flow cytometry-based neutralization of DENV3 (CH53489) infection of Vero-81 cells is 0.041 µg/mL.
